Source: patent US20110014287A1 (ALLERGAN, published 2011)

Legend:
[1] = molecular target: T1, silk fibroin, substantially sericin-depleted, from Bombyx mori silk (Bombyx mori, UniProt P05790 22-5263; P21828 17-262, limits assumed); assay: HPLC of 23RGD extracted from silk precipitates, across formulations
T1 construct: also called silk fibroin hydrogel; silk gel
Method: (§1) The amount of 23RGD bound to silk precipitates was quantified by analyzing lyophilized samples. The 23RGD was removed by incubating the samples for 4 hours in a dissolving buffer, then centrifuging on an Eppendorf 5415C (Eppendorf North America Inc., Westbury, N.Y.) at 16,000 g (RCF) for 30 minutes and the supernatant collected. This supernatant was then centrifuged in identical fashion and the final supernatant collected for HPLC analysis using a PerkinElmer Series 200 (PerkinElmer, Waltham, Mass.). The 23RGD peak areas from each curve were compared against a standard curve. 1-Way ANOVA was used to test for significant differences caused by changing silk concentration, 23RGD concentration, and accelerant volume. A Student's t-test was used to test the significance of differences resulting from altered ethanol concentrations.

[2] = molecular target: T1, silk fibroin, substantially …; assay: HPLC of 23RGD extracted from rinsed silk hydrogel, peak area against a 23RGD standard curve
From the text: 23RGD-infused gels were studied to quantify the amount of 23RGD bound to the silk-hydrogel device as well as the quantity of free 23RGD which might be rinsed free of the device under relevant conditions. Briefly, samples of 23RGD-infused gel were cast and rinsed according to the methods above, with samples of rinse buffer being collected from each rinse for subsequent analysis by HPLC. Additionally, subsequent to the last rinse, the gel samples were mechanically pulverized by means of a stainless steel stirring rod and the adsorbed 23RGD removed by incubation for 4 hours in a dissolving buffer. This mixture of gel and solvent was then centrifuged on an Eppendorf 5415C at 16,000 g RCF for 30 minutes. The supernatant was collected and centrifuged another 30 minutes at 16,000 g RCF after which time the supernatant was collected in a sample vial for HPLC analysis. Samples of rinse buffer from the first and last rinse were centrifuged in the same fashion after being diluted with the same solvent the gel was extracted with in a volumetric ratio of 1 part rinse buffer to 4 parts solvent. To ensure 23RGD-hydrogel device rinse-exposed surface area was not a limiting factor, the same rinse and extraction process was performed upon devices pulverized after gelation and before rinsing.

[3] = molecular target: T1, silk fibroin, substantially …; assay: HPLC of 23RGD extracted from lyophilized silk precipitate, against standard curve; RHI formulation
Method: as §1

[4] = molecular target: T1, silk fibroin, substantially …; assay: HPLC of 23RGD extracted from lyophilized silk precipitate, against standard curve; AVHI formulation
Method: as §1

[5] = molecular target: T1, silk fibroin, substantially …; assay: HPLC of 23RGD extracted from lyophilized silk precipitate, against standard curve; AVLO formulation
Method: as §1

[6] = molecular target: T1, silk fibroin, substantially …; assay: HPLC of 23RGD extracted from lyophilized silk precipitate, against standard curve; BASE formulation
Method: as §1

[7] = molecular target: T1, silk fibroin, substantially …; assay: HPLC of 23RGD extracted from lyophilized silk precipitate, against standard curve; SCLO formulation
Method: as §1

[8] = molecular target: T1, silk fibroin, substantially …; assay: HPLC of 23RGD extracted from lyophilized silk precipitate, against standard curve; SCVLO formulation
Method: as §1

[9] = molecular target: T1, silk fibroin, substantially …; assay: HPLC of 23RGD extracted from lyophilized silk precipitate, against standard curve; formulation labelled RLO in this sentence
Method: as §1

[10] = molecular target: T1, silk fibroin, substantially …; assay: HPLC of 23RGD extracted from lyophilized silk precipitate, against standard curve; formulation labelled RMED in this sentence
Method: as §1

With GRGDIPASSKGGGGSRLLLLLLR (not fully specified; C-terminal -NH2 as printed (HOOC-GRGDIPASSKG4SRL6R-NH2), also called amphiphilic peptide) [23RGD peptide (HOOC-GRGDIPASSKG4SRL6R-NH2)] the “apparent saturation 23RGD:silk ratio” value [1] was ~10 23RGD:silk ratio, the “23RGD:silk ratio bound to the gel” value [2] was 3.35 23RGD:silk ratio and the “23RGD:silk ratio bound to the precipitate” value [3] was 10.7 23RGD:silk ratio. The “23RGD:silk ratio bound to the precipitate” value [4] was 10.5 23RGD:silk ratio, the “23RGD:silk ratio bound to the precipitate” value [5] was 5.2 23RGD:silk ratio and the “23RGD:silk ratio bound to the precipitate” value [6] was 8.7 23RGD:silk ratio. For the same binder, the “23RGD:silk ratio bound to the precipitate” value [7] was 9.9 23RGD:silk ratio, the “23RGD:silk ratio bound to the precipitate” value [8] was 11 23RGD:silk ratio and the “23RGD:silk ratio bound to the precipitate” value [9] was 1.1 23RGD:silk ratio. The “23RGD:silk ratio bound to the precipitate” value [10] was 6.95 23RGD:silk ratio.
